Holding throughout (conditions): other: substrate cleavage by MMP-9
Substrate in series [1]: COc1ccc2c(CC(=O)N[C@H](CCCNC(=N)N)C(=O)N3CCC[C@H]3C(=O)N[C@@H](CC(C)C)C(=O)NCC(=O)N[C@@H](CCCCOCc3ccccc3)C(=O)N[C@@H](CNc3ccc([N+](=O)[O-])cc3[N+](=O)[O-])C(=O)N[C@@H](C)C(=O)N[C@H](CCCNC(=N)N)C(=O)N[C@H](CCC(=O)O)C(=O)N[C@H](CCCNC(=N)N)C(N)=O)cc(=O)oc2c1
Briefly: Km and kcat/Km of substrates with MMP-9. It is filed as biochemical.

Substrate in series [2]: COc1ccc2c(CC(=O)N[C@H](CCCNC(=N)N)C(=O)N3CCC[C@H]3C(=O)N[C@@H](CC(C)C)C(=O)NCC(=O)N[C@@H](CCCCOc3ccccc3)C(=O)N[C@@H](CNc3ccc([N+](=O)[O-])cc3[N+](=O)[O-])C(=O)N[C@@H](C)C(=O)N[C@H](CCCNC(=N)N)C(=O)N[C@H](CCC(=O)O)C(=O)N[C@H](CCCNC(=N)N)C(N)=O)cc(=O)oc2c1
Briefly: Km and kcat/Km of substrates with MMP-9. It is filed as biochemical.

Substrate in series [3]: COc1ccc2c(CC(=O)N[C@@H](CCCNC(=N)N)C(=O)N3CCCC3C(=O)N[C@@H](CC(C)C)C(=O)NCC(=O)N[C@@H](CC(C)C)C(=O)N[C@H](CNc3ccc([N+](=O)[O-])cc3[N+](=O)[O-])C(=O)N[C@@H](C)C(=O)N[C@H](CCCNC(=N)N)C(=O)N[C@@H](CCC(=O)O)C(=O)N[C@H](CCCNC(=N)N)C(N)=O)cc(=O)oc2c1
In words: Km and kcat/Km of substrates with MMP-9. It is filed as biochemical.

Substrate in series [4]: COc1ccc2c(CC(=O)N[C@@H](CCCNC(=N)N)C(=O)N3CCC[C@H]3C(=O)N[C@@H](CC(C)C)C(=O)NCC(=O)N[C@@H](CCCCOCc3ccccc3)C(=O)N[C@@H](CNc3ccc([N+](=O)[O-])cc3[N+](=O)[O-])C(=O)N[C@@H](C)C(=O)N[C@@H](CCCNC(=N)N)C(=O)N[C@@H](CCC(=O)O)C(=O)N[C@@H](CCCNC(=N)N)C(N)=O)cc(=O)oc2c1
Briefly: Km and kcat/Km of substrates with MMP-9. It is filed as biochemical.

Substrate in series [5]: COc1ccc2c(CC(=O)N[C@@H](CCCNC(=N)N)C(=O)N3CCCC3C(=O)N[C@@H](CC(C)C)C(=O)NCC(=O)N[C@@H](CC(C)C)C(=O)N[C@H](CNc3ccc([N+](=O)[O-])cc3[N+](=O)[O-])C(=O)N[C@@H](C)C(=O)N[C@H](CCCNC(=N)N)C(=O)N[C@@H](CCC(=O)O)C(=O)N[C@H](CCCNC(=N)N)C(N)=O)cc(=O)oc2c1
Briefly: purified protein, by the assay type.

Substrate in series [6]: COc1ccc2c(CC(=O)N[C@@H](CCCNC(=N)N)C(=O)N3CCC[C@@H]3C(=O)N[C@@H](CC(C)C)C(=O)NCC(=O)N[C@@H](CC(C)C)C(=O)N[C@H](CNc3ccc([N+](=O)[O-])cc3[N+](=O)[O-])C(=O)N[C@@H](C)C(=O)N[C@H](CCCNC(=N)N)C(=O)N[C@@H](CCC(=O)O)C(=O)N[C@H](CCCNC(=N)N)C(N)=O)cc(=O)oc2c1
Briefly: purified protein, by the assay type.

B1: MMP-9 (Homo sapiens) (protein)
chain: MRTPRCGVPDLGRFQTFEGDLKWHHHNITYWIQNYSEDLPRAVIDDAFARAFALWSAVTPLTFTRVYSRDADIVIQFGVAEHGDGYPFDGKDGLLAHAFPPGPGIQGDAHFDDDELWSLGKGVVVPTRFGNADGAACHFPFIFEGRSYSACTTDGRSDGLPWCSTTANYDTDDRFGFCPSERLYTQDGNADGKPCQFPFIFQGQSYSACTTDGRSDGYRWCATTANYDRDKLFGFCPTRADSTVMGGNSAGELCVFPFTFLGKEYSTCTSEGRGDGRLWCATTSNFDSDKKWGFCPDQGYSLFLVAAHEFGHALGLDHSSVPEALMYPMYRFTEGPPLHKDDVNGIRHLYGPRPEPEPRPPTTTTPQPTAPPTVCPTGPPTVHPSERPTAGPTGPPSAGPTGPPTAGPSTATTVPLSPVDDACNVNIFDAIAEIGNQLYLFKDGKYWRFSEGRGSRPQGPFLIADKWPALPRKLDSVFEERLSKKLFFFSGRQVWVYTGASVLGPRRLDKLGLGADVAQVTGALRSGRGKMLLFSGRRLWRFDVKAQMVDPRSASEVDRMFPGVPLDTHDVFQYREKAYFCQDRFYWRVSSRSELNQVDQVGYVTYDILQCPED
Take B1: the Km – broadly, the concentration of substrate that gives half-maximal velocity – in series [1] came to 3.3 µM; in series [2] it was 1.4 µM; in series [3] it was 6.2 µM; in series [4], 2.3 µM; in series [5] it was 8.2 µM; in series [6], 6.4 µM. In addition, the kcat/Km in series [1] stood at 31.9 M^−1s^−1×10^4; in series [2] it was 191 M^−1s^−1×10^4; in series [3] it was 129 M^−1s^−1×10^4; in series [4] it was 147 M^−1s^−1×10^4; in series [5], 133 M^−1s^−1×10^4; in series [6], 41.8 M^−1s^−1×10^4.

These data come from patent publication US20040018561A1, “Peptide compounds and their use as protease substrates” (priority 2002, published 2004).
